Key:
EGF5+6 = biological target: T1, EGF5+6; assay: flow cytometry on HEK293 cells expressing the DLL3 subdomain construct, PE anti-human secondary, control: secondary antibody only
T1 construct: also called Hu DLL3 EGF5+6 on HEK293 cells
T1 membrane-anchored DLL3 subdomain construct: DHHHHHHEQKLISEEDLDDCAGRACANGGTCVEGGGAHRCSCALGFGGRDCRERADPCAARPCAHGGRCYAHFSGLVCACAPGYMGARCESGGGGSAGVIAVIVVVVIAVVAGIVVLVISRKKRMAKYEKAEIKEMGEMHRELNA
Procedure: (§1) DLL3/CD3 binding proteins were produced by transient transfection of CHO-E cells with the pTT5 vectors carrying the chain-encoding genes, as described in Example 2. […] Bound molecules were detected with PE-conjugated anti-human secondary antibody (Sigma-Aldrich, #P8047). As negative control, cells were incubated with secondary antibody only.
(§2) The samples were measured by flow-cytometry. […] The sequences of the epitope domains are listed in Example 5, Table 3.

[1] = biological target: T2, EGF6+MEMBRANE PROXIMAL PEPTIDE; assay: as above
T2 construct: also called Hu DLL3 EGF6+membrane proximal peptide on HEK293 cells
T2 membrane-anchored DLL3 subdomain construct: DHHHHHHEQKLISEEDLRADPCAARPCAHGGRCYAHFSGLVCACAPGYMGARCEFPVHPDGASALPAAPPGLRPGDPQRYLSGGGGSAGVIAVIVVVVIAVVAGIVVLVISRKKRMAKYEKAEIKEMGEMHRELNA
Procedure: as §1, §2

EGF1+2 = biological target: T3, EGF1+2; assay: as above
T3 construct: also called Hu DLL3 EGF1+2 on HEK293 cells
T3 membrane-anchored DLL3 subdomain construct: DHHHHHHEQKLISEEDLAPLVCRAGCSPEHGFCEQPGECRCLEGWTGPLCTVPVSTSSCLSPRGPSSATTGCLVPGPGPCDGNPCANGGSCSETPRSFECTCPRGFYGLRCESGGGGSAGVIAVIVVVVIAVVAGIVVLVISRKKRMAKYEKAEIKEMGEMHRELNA
Procedure: as §1, §2

EGF2+3 = biological target: T4, EGF2+3; assay: as above
T4 construct: also called Hu DLL3 EGF2+3 on HEK293 cells
T4 membrane-anchored DLL3 subdomain construct: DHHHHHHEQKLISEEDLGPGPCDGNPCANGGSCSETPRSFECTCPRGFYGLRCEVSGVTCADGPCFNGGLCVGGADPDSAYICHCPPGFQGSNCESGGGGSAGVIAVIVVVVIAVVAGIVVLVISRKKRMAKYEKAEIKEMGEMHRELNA
Procedure: as §1, §2

EGF4+5 = biological target: T5, EGF4+5; assay: as above
T5 construct: also called Hu DLL3 EGF4+5 on HEK293 cells
T5 membrane-anchored DLL3 subdomain construct: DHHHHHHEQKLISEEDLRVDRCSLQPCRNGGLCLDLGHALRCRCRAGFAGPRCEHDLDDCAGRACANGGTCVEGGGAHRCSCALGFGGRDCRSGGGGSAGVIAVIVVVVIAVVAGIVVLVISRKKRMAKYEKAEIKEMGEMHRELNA
Procedure: as §1, §2

EGF3+4 = biological target: T6, EGF3+4; assay: as above
T6 construct: also called Hu DLL3 EGF3+4 on HEK293 cells
T6 membrane-anchored DLL3 subdomain construct: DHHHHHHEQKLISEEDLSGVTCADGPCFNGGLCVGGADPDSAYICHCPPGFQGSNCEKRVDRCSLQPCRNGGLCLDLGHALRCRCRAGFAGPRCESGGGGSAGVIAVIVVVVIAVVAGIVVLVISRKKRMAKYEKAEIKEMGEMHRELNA
Procedure: as §1, §2

[2] = biological target: T7, human DLL3 (endogenous, on SCLC cell lines NCI-H82 and SHP77 and in SCLC tissue) (human, UniProt Q9NYJ7 27-618); assay: flow cytometry titration on NCI-H82 cells, PE anti-human secondary, x-fold over background
T7 construct: whole, on cells; also called SCLC cell lines expressing DLL3
T7 sequence (looked up): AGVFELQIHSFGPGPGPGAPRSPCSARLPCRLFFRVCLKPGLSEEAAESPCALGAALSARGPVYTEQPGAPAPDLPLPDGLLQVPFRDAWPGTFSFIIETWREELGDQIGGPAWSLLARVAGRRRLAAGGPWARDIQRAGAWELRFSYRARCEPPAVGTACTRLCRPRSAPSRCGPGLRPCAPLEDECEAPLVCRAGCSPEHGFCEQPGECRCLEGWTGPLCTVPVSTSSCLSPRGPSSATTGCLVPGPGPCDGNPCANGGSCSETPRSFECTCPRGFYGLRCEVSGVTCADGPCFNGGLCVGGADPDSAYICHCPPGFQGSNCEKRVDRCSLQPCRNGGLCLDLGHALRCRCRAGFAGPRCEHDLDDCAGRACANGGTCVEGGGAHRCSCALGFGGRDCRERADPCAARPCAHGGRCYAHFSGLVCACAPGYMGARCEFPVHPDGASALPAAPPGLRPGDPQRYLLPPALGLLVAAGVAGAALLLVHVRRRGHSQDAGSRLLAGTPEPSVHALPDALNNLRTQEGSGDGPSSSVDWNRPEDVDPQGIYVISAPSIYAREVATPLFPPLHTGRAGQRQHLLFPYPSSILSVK
Source text: (§3) Cells (T cells or human SCLC cells) were stained with increasing concentrations of two-step purified DLL3/CD3 binding proteins with increasing concentrations in FACS buffer (PBS/0.5% BSA/0.05% sodium azide). Bound molecules were detected with PE-conjugated anti-human secondary antibody (Sigma-Aldrich, #P8047).

[3] = biological target: T7, human DLL3 (endogenous, on SCLC cell …); assay: flow cytometry titration on SHP77 cells, PE anti-human secondary, x-fold over background
Source text: as §3

Human DLL3-His = biological target: T8, Human DLL3-His (human, UniProt Q9NYJ7 27-492); assay: SPR (ProteOn XPR36), bispecific captured on protein A/G, hu DLL3 as analyte, Example 4B
T8 construct: also called huDLL3-His; hu DLL3
T8 sequence: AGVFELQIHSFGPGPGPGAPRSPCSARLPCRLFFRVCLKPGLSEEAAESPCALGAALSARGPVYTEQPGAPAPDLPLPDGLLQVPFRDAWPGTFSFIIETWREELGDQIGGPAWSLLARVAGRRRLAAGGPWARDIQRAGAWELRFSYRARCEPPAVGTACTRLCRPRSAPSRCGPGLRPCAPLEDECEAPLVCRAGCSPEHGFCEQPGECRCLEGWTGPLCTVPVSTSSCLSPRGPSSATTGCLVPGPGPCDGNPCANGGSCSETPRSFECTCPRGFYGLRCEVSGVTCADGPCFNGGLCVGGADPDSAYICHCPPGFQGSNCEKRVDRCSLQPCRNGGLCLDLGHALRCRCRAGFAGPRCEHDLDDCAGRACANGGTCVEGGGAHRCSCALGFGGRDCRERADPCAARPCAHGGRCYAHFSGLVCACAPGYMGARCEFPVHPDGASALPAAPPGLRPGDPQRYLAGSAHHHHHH
Procedure: (§4) The binding affinity of purified DLL3/CD3 bispecific constructs for recombinant human DLL3-ECD and Fc-fusion protein of human CD3 εγ subunits was determined by Surface Plasmon Resonance (SPR), using a ProteOn XPR36 instrument (Bio-Rad).
For binding kinetic determination to DLL3, anti-DLL3/CD3 molecules were captured individually on the protein A/G surface vertically for 200 sec at a flowrate of 30 μl/min. The baseline was stabilized by injecting PBS-T-EDTA for 60 sec at a flowrate of 30 μl/min horizontally. The analyte (hu DLL3) was injected horizontally over the captured antibody for 300 sec at a flowrate of 30 μl/min and a dissociation for 1800 sec.

[4] = biological target: T9, trypsin inhibitor from glycine max soybean (Glycine max (soybean)); assay: SPR (Biacore T200), trypsin inhibitor on CM5 chip, sample at 1 µM
T9 construct: also called Tryp
Source text: To prepare the surface for the non-specific binding experiment, chicken egg white lysozyme and trypsin inhibitor from glycine max soybean were coupled manually to a series S CM5 chip with the surface density of 3000-5000 RU using the amine coupling kit according to the manufacture instructions.

Human CD3 E+G HuFc-6xHis = biological target: T10, Human CD3 E+G HuFc-6xHis (human); assay: SPR (ProteOn XPR36), HuCD3E_HuCD3G-Fc amine-coupled, bispecific as analyte, Example 4B
T10 construct: also called hu CD3εγ-Fc
Procedure: as §4
For binding kinetic determination to CD3, HuCD3E_HuCD3G-Fc (dissolved in pH 4.5 acetate) was immobilized directly onto the sensor surface through amine coupling for 360 sec at a flowrate of 30 μl/min vertically. The baseline was stabilized by injecting PBS-T-EDTA for 60 sec at a flowrate of 30 μl/min horizontally. The analytes (all anti-DLL3/CD3 molecules) were injected horizontally over the captured antibody for 600 sec at a flowrate of 30 μl/min and a dissociation for 1800 sec.

T9 sequence (P01070 25-205): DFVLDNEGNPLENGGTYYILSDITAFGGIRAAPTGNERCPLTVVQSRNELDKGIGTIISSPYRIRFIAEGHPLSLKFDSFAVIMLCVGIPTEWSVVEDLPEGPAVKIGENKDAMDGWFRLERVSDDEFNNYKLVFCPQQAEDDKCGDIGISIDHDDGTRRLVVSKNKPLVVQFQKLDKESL
T10 sequence (chain, as listed by the source limits assumed): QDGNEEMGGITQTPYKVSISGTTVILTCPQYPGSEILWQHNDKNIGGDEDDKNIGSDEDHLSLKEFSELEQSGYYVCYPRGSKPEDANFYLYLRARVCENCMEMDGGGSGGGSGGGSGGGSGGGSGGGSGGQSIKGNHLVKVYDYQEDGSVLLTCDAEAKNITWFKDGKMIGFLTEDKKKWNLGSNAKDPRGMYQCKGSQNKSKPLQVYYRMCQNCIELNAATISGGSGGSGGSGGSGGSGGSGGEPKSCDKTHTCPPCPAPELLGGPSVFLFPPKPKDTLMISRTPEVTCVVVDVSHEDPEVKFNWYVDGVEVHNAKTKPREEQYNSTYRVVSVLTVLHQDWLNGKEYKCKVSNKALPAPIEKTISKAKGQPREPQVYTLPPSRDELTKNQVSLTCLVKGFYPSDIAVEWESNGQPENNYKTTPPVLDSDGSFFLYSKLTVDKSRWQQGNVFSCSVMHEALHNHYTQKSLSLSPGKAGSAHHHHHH

B1: DLL3#15/CD3#1 (bispecific antibody, human IgG1, kappa, lambda, L234A L235A)
chain 1: not shown
chain 2: EAVVTQEPSLTVSPGGTVTLTCRSSTGAVTTSNYANWVQEKPGQLPRGLIGGTNKRAPWVPARFSGSLLGGKAALTLSGAQPEDEAEYFCALWYSNLWVFGGGTKLTVLGQPKAAPSVTLFPPSSEELQANKATLVCLISDFYPGAVKVAWKADGSPVNTGVETTTPSKQSNNKYAASSYLSLTPEQWKSHRSYSCQVTHEGSTVEKTVAPAECSGGGGSEGKSSGSGSESKSTEGKSSGSGSESKSTGGGGSEVQLVESGGGLVQPGGSLKLSCAASGFTFNTYAMNWVRQAPGKGLEWVARIRSKYNNYATYYADSVKDRFTISRDDSKNTAYLQMNNLKTEDTAVYYCVRHGNFGNSYVSWFAYWGQGTLVTVSAASTKGPSVFPLAPSSKSTSGGTAALGCLVKDYFPEPVTVSWNSGALTSGVHTFPAVLQSSGLYSLSSVVTVPSSSLGTQTYICNVNHKPSNTKVDKRVEPKSCDKTHTCPPCPAPEAAGGPSVFLFPPKPKDTLMISRTPEVTCVVVDVSHEDPEVKFNWYVDGVEVHNAKTKPREEQYNSTYRVVSVLTVLHQDWLNGKEYKCKVSNKALPAPIEKTISKAKGQPREPQVYTLPPSREEMTKNQVSLSCAVKGFYPSDIAVEWESNGQPENNYKTTPPVLDSDGSFFLVSKLTVDKSRWQQGNVFSCSVMHEALHNRFTQKSLSLSPG
notes: Heterodimer of one DLL3 chain and one CD3 chain (scFab-Fc, knob-in-hole); SPR not given
B1: no binding (tested: 1.6 nM) (EGF5+6); no binding (tested: 1.6 nM) [1]; no binding (tested: 1.6 nM) (EGF1+2). B1: no binding (tested: 1.6 nM) (EGF2+3); no binding (tested: 1.6 nM) (EGF4+5); no binding (tested: 1.6 nM) (EGF3+4). The “EC50 (read off the curve)” value [2] was about 1 nM and the “EC50 (read off the curve)” value [3] was about 2 nM.

B2: DLL3#16/CD3#1 (bispecific antibody, human IgG1, kappa, lambda, L234A L235A)
chain 1: DIQMTQSPSTLSASVGDRVTITCRASQSVSDWLAWYQQKPGKAPKFLIYRASSLESGVPSRFSGSGSGTEFTLTISSLQPADFATYYCQLYNSYSPTFGQGTKVEIKRTVAAPSVFIFPPSDEQLKSGTASVVCLLNNFYPREAKVQWKVDNALQSGNSQESVTEQDSKDSTYSLSSTLTLSKADYEKHKVYACEVTHQGLSSPVTKSFNRGECGGGGSEGKSSGSGSESKSTEGKSSGSGSESKSTGGGGSEVHLVESGGGLVQPGGSLRLSCAASGFTFSSYWMTWVRQAPGKGLEWVANIKEDGSEKYYVDSVKGRFTISRDNAKNSLYLQMNSLRAEDTALYYCARDWGYFDYWGQGTLVTVSSASTKGPSVFPLAPSSKSTSGGTAALGCLVKDYFPEPVTVSWNSGALTSGVHTFPAVLQSSGLYSLSSVVTVPSSSLGTQTYICNVNHKPSNTKVDKRVEPKSCDKTHTCPPCPAPEAAGGPSVFLFPPKPKDTLMISRTPEVTCVVVDVSHEDPEVKFNWYVDGVEVHNAKTKPREEQYNSTYRVVSVLTVLHQDWLNGKEYKCKVSNKALPAPIEKTISKAKGQPREPQVYTLPPSREEMTKNQVSLWCLVKGFYPSDIAVEWESNGQPENNYKTTPPVLDSDGSFFLYSKLTVDKSRWQQGNVFSCSVMHEALHNHYTQKSLSLSPG
chain 2: B1 chain 2
notes: Heterodimer of one DLL3 chain and one CD3 chain (scFab-Fc, knob-in-hole)
For B2, the Kd (Human DLL3-His) was 0.228 nM, the binding result (EGF5+6) was “no binding (tested: 1.6 nM)” and the binding result [1] was “no binding (tested: 1.6 nM)”. B2: no binding (tested: 1.6 nM) (EGF1+2); no binding (tested: 1.6 nM) (EGF2+3); no binding (tested: 1.6 nM) (EGF4+5). The binding result (EGF3+4) was “no binding (tested: 1.6 nM)”, the “Non-specific binding (RU)” value [4] was 0 RU and the Kd (Human CD3 E+G HuFc-6xHis) was 2 nM.

B3: DLL3#14/CD3#1 (bispecific antibody, human IgG1, kappa, lambda, L234A L235A)
chain 1: not shown
chain 2: B1 chain 2
notes: as for B2
In the case of B3, the Kd (Human DLL3-His) is reported as 0.06 nM, the binding result (EGF5+6) is reported as “no binding (tested: 1.6 nM)” and the binding result [1] is reported as “no binding (tested: 1.6 nM)”. B3: no binding (tested: 1.6 nM) (EGF1+2); no binding (tested: 1.6 nM) (EGF2+3); no binding (tested: 1.6 nM) (EGF4+5). For the same binder, the binding result (EGF3+4) was “no binding (tested: 1.6 nM)”, the “Non-specific binding (RU)” value [4] was 6 RU and the Kd (Human CD3 E+G HuFc-6xHis) was 3 nM.
